# Results taken from article PMC12781872, “Differential association of primary and alternative σ factors with RNA polymerase of Mycobacterium tuberculosis during transcription elongation” (Nucleic Acids Research, 2026).
# Target: T1, Mycobacterium tuberculosis RNA polymerase core (α2ββ'ω), wildtype (Mycobacterium tuberculosis, UniProt P9WGZ1;P9WGY9;P9WGY7;P9WGY5)
# T1 construct: also called Mtb RNAP core; unlabelled RNAP core; copies: 2 + + +
# Test: native gel or EMSA
# Conditions: both partners purified
# T1 sequence (P9WGZ1 whole entry, chain 1 of 4): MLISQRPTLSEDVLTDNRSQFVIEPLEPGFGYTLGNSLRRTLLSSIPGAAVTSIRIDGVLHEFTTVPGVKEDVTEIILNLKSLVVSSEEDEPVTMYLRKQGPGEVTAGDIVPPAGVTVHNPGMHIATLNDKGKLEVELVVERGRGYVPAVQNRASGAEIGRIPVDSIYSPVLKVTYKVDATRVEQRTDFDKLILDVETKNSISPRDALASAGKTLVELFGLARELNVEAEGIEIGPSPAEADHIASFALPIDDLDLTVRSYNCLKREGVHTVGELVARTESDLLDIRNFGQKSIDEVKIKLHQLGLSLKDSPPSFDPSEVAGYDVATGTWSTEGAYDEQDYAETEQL
# T1 sequence (P9WGY9 whole entry, chain 2 of 4): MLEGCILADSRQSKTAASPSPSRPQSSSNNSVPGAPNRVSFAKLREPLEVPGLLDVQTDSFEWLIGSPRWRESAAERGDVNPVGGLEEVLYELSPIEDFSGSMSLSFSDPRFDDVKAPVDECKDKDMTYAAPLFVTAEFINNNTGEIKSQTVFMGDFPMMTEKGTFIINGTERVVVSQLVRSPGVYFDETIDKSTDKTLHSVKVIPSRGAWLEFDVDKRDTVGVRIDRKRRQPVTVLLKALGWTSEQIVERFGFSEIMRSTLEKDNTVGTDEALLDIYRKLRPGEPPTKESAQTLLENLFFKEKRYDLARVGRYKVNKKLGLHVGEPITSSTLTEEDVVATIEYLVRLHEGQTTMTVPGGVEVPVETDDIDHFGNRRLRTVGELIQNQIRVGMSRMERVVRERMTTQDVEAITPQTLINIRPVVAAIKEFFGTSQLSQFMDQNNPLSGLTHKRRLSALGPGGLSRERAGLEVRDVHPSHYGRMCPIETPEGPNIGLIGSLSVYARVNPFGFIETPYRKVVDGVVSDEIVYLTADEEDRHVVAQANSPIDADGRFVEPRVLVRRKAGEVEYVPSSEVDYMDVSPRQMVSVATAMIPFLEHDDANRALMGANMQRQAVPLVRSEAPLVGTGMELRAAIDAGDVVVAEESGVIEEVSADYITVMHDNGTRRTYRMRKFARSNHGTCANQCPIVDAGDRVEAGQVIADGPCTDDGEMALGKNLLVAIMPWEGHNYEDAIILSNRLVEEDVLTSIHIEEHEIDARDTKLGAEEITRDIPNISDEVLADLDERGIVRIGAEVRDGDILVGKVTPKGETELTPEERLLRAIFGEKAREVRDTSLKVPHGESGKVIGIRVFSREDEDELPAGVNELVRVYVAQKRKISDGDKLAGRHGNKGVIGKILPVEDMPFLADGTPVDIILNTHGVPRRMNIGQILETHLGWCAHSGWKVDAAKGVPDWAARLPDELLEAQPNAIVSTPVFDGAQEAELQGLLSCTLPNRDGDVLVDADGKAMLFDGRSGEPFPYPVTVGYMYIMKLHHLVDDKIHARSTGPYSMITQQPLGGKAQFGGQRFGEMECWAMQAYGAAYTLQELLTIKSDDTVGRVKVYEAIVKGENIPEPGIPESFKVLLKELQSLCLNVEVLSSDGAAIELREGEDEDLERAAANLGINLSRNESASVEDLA
# T1 sequence (P9WGY7 whole entry, chain 3 of 4): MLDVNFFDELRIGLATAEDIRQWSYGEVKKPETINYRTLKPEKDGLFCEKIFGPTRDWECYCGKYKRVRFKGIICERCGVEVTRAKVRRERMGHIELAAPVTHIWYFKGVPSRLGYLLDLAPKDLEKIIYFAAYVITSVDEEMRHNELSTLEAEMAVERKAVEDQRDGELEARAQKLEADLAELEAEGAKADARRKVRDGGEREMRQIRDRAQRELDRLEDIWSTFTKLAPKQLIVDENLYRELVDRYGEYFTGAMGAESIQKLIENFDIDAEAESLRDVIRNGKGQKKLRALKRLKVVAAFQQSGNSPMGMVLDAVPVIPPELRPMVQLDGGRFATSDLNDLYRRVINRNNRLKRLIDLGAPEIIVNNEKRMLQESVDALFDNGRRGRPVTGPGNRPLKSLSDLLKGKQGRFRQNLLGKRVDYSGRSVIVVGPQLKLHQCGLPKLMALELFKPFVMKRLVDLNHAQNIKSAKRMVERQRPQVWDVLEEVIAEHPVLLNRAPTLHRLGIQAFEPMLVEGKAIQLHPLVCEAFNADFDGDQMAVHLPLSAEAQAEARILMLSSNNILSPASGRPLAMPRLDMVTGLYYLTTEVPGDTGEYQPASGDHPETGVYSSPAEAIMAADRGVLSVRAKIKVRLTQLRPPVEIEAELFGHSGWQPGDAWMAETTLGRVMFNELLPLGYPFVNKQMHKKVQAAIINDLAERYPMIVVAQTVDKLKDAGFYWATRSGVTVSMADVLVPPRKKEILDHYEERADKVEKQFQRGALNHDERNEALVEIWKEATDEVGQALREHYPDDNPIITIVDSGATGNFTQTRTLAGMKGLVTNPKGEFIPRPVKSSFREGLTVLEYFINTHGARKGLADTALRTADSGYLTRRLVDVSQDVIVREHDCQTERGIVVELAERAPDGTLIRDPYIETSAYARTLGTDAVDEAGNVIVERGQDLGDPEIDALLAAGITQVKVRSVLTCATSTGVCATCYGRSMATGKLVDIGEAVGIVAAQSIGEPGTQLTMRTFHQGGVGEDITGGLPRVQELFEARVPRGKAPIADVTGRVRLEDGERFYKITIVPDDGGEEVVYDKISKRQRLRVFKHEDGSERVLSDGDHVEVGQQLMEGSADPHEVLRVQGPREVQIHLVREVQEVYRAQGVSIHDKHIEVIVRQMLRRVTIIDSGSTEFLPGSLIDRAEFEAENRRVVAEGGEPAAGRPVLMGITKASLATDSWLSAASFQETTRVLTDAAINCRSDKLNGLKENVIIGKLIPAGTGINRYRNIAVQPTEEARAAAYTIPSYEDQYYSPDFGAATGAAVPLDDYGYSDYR
# T1 sequence (P9WGY5 whole entry, chain 4 of 4): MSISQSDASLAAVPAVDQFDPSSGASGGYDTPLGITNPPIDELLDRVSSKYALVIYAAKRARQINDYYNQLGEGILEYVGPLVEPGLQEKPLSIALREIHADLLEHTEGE
binder,measurement,value
"Alexafluor-488 labelled Mtb σ^A (natural protein, also called AF488 labelled σ^A; σ^A-488) MAATKASTATDEPVKRTATKSPAASASGAKTGAKRTAAKSASGSPPAKRATKPAARSVKPASAPQDTTTSTIPKRKTRAAAKSAAAKAPSARGHATKPRAPKDAQHEAATDPEDALDSVEELDAEPDLDVEPGEDLDLDAADLNLDDLEDDVAPDADDDLDSGDDEDHEDLEAEAAVAPGQTADDDEEIAEPTEKDKASGDFVWDEDESEALRQARKDAELTASADSVRAYLKQIGKVALLNAEEEVELAKRIEAGLYATQLMTELSERGEKLPAAQRRDMMWICRDGDRAKNHLLEANLRLVVSLAKRYTGRGMAFLDLIQEGNLGLIRAVEKFDYTKGYKFSTYATWWIRQAITRAMADQARTIRIPVHMVEVINKLGRIQRELLQDLGREPTPEELAKEMDITPEKVLEIQQYAREPISLDQTIGDEGDSQLGDFIEDSEAVVAVDAVSFTLLQDQLQSVLDTLSEREAGVVRLRFGLTDGQPRTLDEIGQVYGVTRERIRQIESKTMSKLRHPSRSQVLRDYLD","fractional occupancy relative to RPo, at RPitc (sinP3)",~95%
same,"fractional occupancy relative to RPo, at TEC+16 (sinP3)",77%
same,"fractional occupancy relative to RPo, at TEC+23 (sinP3)",72%
same,"fractional occupancy relative to RPo, at TEC+29 (sinP3)",63%
same,"fractional occupancy relative to RPo, at TEC+59 (sinP3)",49%
"TMR-labelled Mtb σ^E used in EMSA and anisotropy assays (natural protein, also called TMR-labelled σ^E; labelled σ^E) MELLGGPRVGNTESQLCVADGDDLPTYCSANSEDLNITTITTLSPTSMSHPQQVRDDQWVEPSDQLQGTAVFDATGDKATMPSWDELVRQHADRVYRLAYRLSGNQHDAEDLTQETFIRVFRSVQNYQPGTFEGWLHRITTNLFLDMVRRRARIRMEALPEDYDRVPADEPNPEQIYHDARLGPDLQAALASLPPEFRAAVVLCDIEGLSYEEIGATLGVKLGTVRSRIHRGRQALRDYLAAHPEHGECAVHVNPVR","fractional occupancy relative to RPo, at RPitc (sigB)",~93%
same,"fractional occupancy relative to RPo, at TEC+15 (sigB)",55%
same,"fractional occupancy relative to RPo, at TEC+23 (sigB)",47%
same,"fractional occupancy relative to RPo, at TEC+27 (sigB)",45%
same,"fractional occupancy relative to RPo, at TEC+84 (sigB)",38%
"TMR-labelled Mtb σ^F (wild type, labelled at the natural cysteine, residue 47 of σ2) (natural protein, also called TMR-labelled σ^F; σ^F labelled with TMR at region 2) MTARAAGGSASRANEYADVPEMFRELVGLPAGSPEFQRHRDKIVQRCLPLADHIARRFEGRGEPRDDLIQVARVGLVNAAVRFDVKTGSDFVSFAVPTIMGEVRRHFRDNSWSVKVPRRLKELHLRLGTATADLSQRLGRAPSASELAAELGMDRAEVIEGLLAGSSYHTLSIDSGGGSDDDARAITDTLGDVDAGLDQIENREVLRPLLEALPERERTVLVLRFFDSMTQTQIAERVGISQMHVSRLLAKSLARLRDQLE","fractional occupancy relative to RPo, at RPitc (usfXP1)",~96%
same,"fractional occupancy relative to RPo, at TEC+17 (usfXP1)",89%
same,"fractional occupancy relative to RPo, at TEC+23 (usfXP1)",87%
same,"fractional occupancy relative to RPo, at TEC+28 (usfXP1)",83%
same,"fractional occupancy relative to RPo, at TEC+64 (usfXP1)",82%
